Patent US20170296640A1 (IMMATICS BIOTECHNOLOGIES, published 2017)

Target: T1, HLA-A*02:01 (peptide-receptive MHC class I monomer after UV cleavage of the UV-sensitive ligand) (human)
T1 construct: MHC monomers loaded by UV-ligand exchange and captured on streptavidin plates
Test: UV ligand-exchange ELISA; exchange yield grade (+ >=10%, ++ >=20%, +++ >=50%, ++++ >=75%)
Method in brief: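 UV-cleavable peptide in HLA monomers exchanged for test peptide by UV irradiation; exchange yield measured by streptavidin-capture ELISA with HRP anti-β2m (TMB, 450 nm) on 100-fold diluted complexes. Quantified against refolded HLA-A*02:01/MLA-001 standards (15-500 ng/ml).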

Row | Binder | peptide exchange yield | binding result
1 | YLQDLVERA [YLQDLVERA (SEQ ID NO: 42)] | ≥ 75% | –
2 | KLYGPEGLELV [KLYGPEGLELV (SEQ ID NO: 294)] | ≥ 75% | –
3 | TLQTVPLTTV [TLQTVPLTTV (SEQ ID NO: 281)] | ≥ 75% | –
4 | DIFDAMFSV [DIFDAMFSV (SEQ ID NO: 54)] | – | binds
5 | SLAAVSQQL [SLAAVSQQL (SEQ ID NO: 295)] | 50 to 75% | –
6 | ILASIFETV [ILASIFETV (SEQ ID NO: 41)] | ≥ 75% | –
7 | IASPVIAAV [IASPVIAAV (SEQ ID NO: 290)] | 50 to 75% | –
8 | LLWEDGVTEA [LLWEDGVTEA (SEQ ID NO: 34)] | 50 to 75% | –
9 | GLAMVEAISYV [GLAMVEAISYV (SEQ ID NO: 293)] | ≥ 75% | –
10 | KIIDTAGLSEA [KIIDTAGLSEA (SEQ ID NO: 291)] | 50 to 75% | –
11 | FILDDSALYL [FILDDSALYL (SEQ ID NO: 45)] | 50 to 75% | –
12 | VLQGLTFTL [VLQGLTFTL (SEQ ID NO: 5)] | 50 to 75% | –
13 | LIDDKGTIKL [LIDDKGTIKL (SEQ ID NO: 314)] | 20 to 50% | –
14 | SLAELDEKISA [SLAELDEKISA (SEQ ID NO: 302)] | 50 to 75% | –
15 | TLLGFFLAKV [TLLGFFLAKV (SEQ ID NO: 4)] | 20 to 50% | –
16 | KLYDEESLL [KLYDEESLL (SEQ ID NO: 31)] | ≥ 75% | –
17 | FLSNANPSL [FLSNANPSL (SEQ ID NO: 28)] | 50 to 75% | –
18 | GLQDLLFSL [GLQDLLFSL (SEQ ID NO: 56)] | 50 to 75% | –
19 | FILEPLYKI [FILEPLYKI (SEQ ID NO: 296)] | ≥ 75% | –
20 | TILGDPQILL [TILGDPQILL (SEQ ID NO: 49)] | ≥ 75% | –
21 | ILQNGLETL [ILQNGLETL (SEQ ID NO: 297)] | 50 to 75% | –
22 | VLGNALEGV [VLGNALEGV (SEQ ID NO: 37)] | 50 to 75% | –
23 | SLSFVSPSL [SLSFVSPSL (SEQ ID NO: 309)] | 50 to 75% | –
24 | FLLFINHRL [FLLFINHRL (SEQ ID NO: 278)] | 50 to 75% | –

Row | Binder | peptide exchange yield | binding result
25 | ALLEGVKNV [ALLEGVKNV (SEQ ID NO: 43)] | 50 to 75% | –
26 | QLLPQGIVPAL [QLLPQGIVPAL (SEQ ID NO: 39)] | 50 to 75% | –
27 | AILLPQPPK [AILLPQPPK (SEQ ID NO: 273)] | 20 to 50% | –
28 | KILDEDLYI [KILDEDLYI (SEQ ID NO: 48)] | 50 to 75% | –
29 | SLLGNSPVL [SLLGNSPVL (SEQ ID NO: 51)] | ≥ 75% | –
30 | KLINSQISL [KLINSQISL (SEQ ID NO: 292)] | 50 to 75% | –
31 | SLSSERYYL [SLSSERYYL (SEQ ID NO: 35)] | 50 to 75% | –
32 | KLQEQIHRV [KLQEQIHRV (SEQ ID NO: 284)] | 50 to 75% | –
33 | RLLEEEGVSL [RLLEEEGVSL (SEQ ID NO: 299)] | 50 to 75% | –
34 | ALMPVTPQA [ALMPVTPQA (SEQ ID NO: 283)] | 50 to 75% | –
35 | SLLDQIPEM [SLLDQIPEM (SEQ ID NO: 308)] | 50 to 75% | –
36 | YLTAEILELAGN [YLTAEILELAGN (SEQ ID NO: 38)] | 20 to 50% | –
37 | LTIDTQYYL [LTIDTQYYL (SEQ ID NO: 3)] | 50 to 75% | –
38 | ALTDVILCV [ALTDVILCV (SEQ ID NO: 298)] | ≥ 75% | –
39 | FVWEASHYL [FVWEASHYL (SEQ ID NO: 303)] | ≥ 75% | –
40 | LQFDGIHVV [LQFDGIHVV (SEQ ID NO: 301)] | 50 to 75% | –
41 | AQVALVNEV [AQVALVNEV (SEQ ID NO: 306)] | 50 to 75% | –
42 | RLAPEIVSA [RLAPEIVSA (SEQ ID NO: 288)] | 50 to 75% | –
43 | VILDIPLLFET [VILDIPLLFET (SEQ ID NO: 36)] | 50 to 75% | –
44 | VLLEDVDAAFL [VLLEDVDAAFL (SEQ ID NO: 52)] | ≥ 75% | –
45 | KLLNLISKL [KLLNLISKL (SEQ ID NO: 274)] | ≥ 75% | –
46 | FLREYFERL [FLREYFERL (SEQ ID NO: 53)] | ≥ 75% | –
47 | LLANIVPIAMLV [LLANIVPIAMLV (SEQ ID NO: 33)] | ≥ 75% | –
48 | SLLAANNLL [SLLAANNLL (SEQ ID NO: 289)] | ≥ 75% | –

Row | Binder | peptide exchange yield | binding result
49 | ILVEVDLVQA [ILVEVDLVQA (SEQ ID NO: 55)] | ≥ 75% | –
50 | YLLEQGAQV [YLLEQGAQV (SEQ ID NO: 282)] | ≥ 75% | –
51 | HLTEDTPKV [HLTEDTPKV (SEQ ID NO: 286)] | 50 to 75% | –
52 | NLAGENILNPL [NLAGENILNPL (SEQ ID NO: 279)] | 50 to 75% | –
53 | ILSTLDVEL [ILSTLDVEL (SEQ ID NO: 30)] | 50 to 75% | –
54 | FLLPVAVKL [FLLPVAVKL (SEQ ID NO: 307)] | 50 to 75% | –
55 | FLNSVIVDL [FLNSVIVDL (SEQ ID NO: 40)] | ≥ 75% | –
56 | SITAVTPLL [SITAVTPLL (SEQ ID NO: 285)] | 50 to 75% | –
57 | KLMDLEDCAL [KLMDLEDCAL (SEQ ID NO: 275)] | ≥ 75% | –
58 | VMAEAPPGV [VMAEAPPGV (SEQ ID NO: 310)] | 50 to 75% | –
59 | FIIEEQSFL [FIIEEQSFL (SEQ ID NO: 44)] | 50 to 75% | –
60 | IVLERNPEL [IVLERNPEL (SEQ ID NO: 300)] | 50 to 75% | –
61 | FLIDLNSTHGTFL [FLIDLNSTHGTFL (SEQ ID NO: 277)] | 50 to 75% | –
62 | ILMGHSLYM [ILMGHSLYM (SEQ ID NO: 287)] | ≥ 75% | –
63 | ALIRLDDLFL [ALIRLDDLFL (SEQ ID NO: 304)] | 50 to 75% | –
64 | VLNEDELPSV [VLNEDELPSV (SEQ ID NO: 32)] | 50 to 75% | –
65 | ILSDVTQGL [ILSDVTQGL (SEQ ID NO: 29)] | 50 to 75% | –
66 | AMLAQQMQL [AMLAQQMQL (SEQ ID NO: 305)] | 50 to 75% | –
67 | LLLDGLIYL [LLLDGLIYL (SEQ ID NO: 50)] | 50 to 75% | –
68 | YLHRQVAAV [YLHRQVAAV (SEQ ID NO: 311)] | 50 to 75% | –
69 | NMISYVVHL [NMISYVVHL (SEQ ID NO: 276)] | 20 to 50% | –
70 | GLLPKLTAL [GLLPKLTAL (SEQ ID NO: 47)] | 50 to 75% | –
71 | FLVEEIFQT [FLVEEIFQT (SEQ ID NO: 46)] | 50 to 75% | –
72 | SLLNHLPYL [SLLNHLPYL (SEQ ID NO: 280)] | ≥ 75% | –
